Measurements reported in patent publication US20170037110A1 (IMMATICS BIOTECHNOLOGIES, published 2017).

B1: ALQDFLLSV (peptide)
peptide: ALQDFLLSV
B2: YLISFQTHI (peptide)
peptide: YLISFQTHI
B3: VLPDPEVLEAV (peptide)
peptide: VLPDPEVLEAV
B4: KITDTLIHL (peptide)
peptide: KITDTLIHL
B5: FLSPQQPPLLL (peptide)
peptide: FLSPQQPPLLL
B6: ALIHPVSTV (peptide)
peptide: ALIHPVSTV
B7: QLINHLHAV (peptide)
peptide: QLINHLHAV
B8: ILVDWLVEV (peptide)
peptide: ILVDWLVEV
B9: ILVDWLVQV (peptide)
peptide: ILVDWLVQV
B10: SMIDDLLGV (peptide)
peptide: SMIDDLLGV
B11: NLIENVQRL (peptide)
peptide: NLIENVQRL
B12: LLWEVVSQL (peptide)
peptide: LLWEVVSQL
B13: AIAYILQGV (peptide)
peptide: AIAYILQGV
B14: ELAERVPAI (peptide)
peptide: ELAERVPAI
B15: LLLDEEGTFSL (peptide)
peptide: LLLDEEGTFSL
B16: MLYVVPIYL (peptide)
peptide: MLYVVPIYL
B17: SLFGGTEITI (peptide)
peptide: SLFGGTEITI
B18: LLQKFVPEI (peptide)
peptide: LLQKFVPEI
B19: ALSEEGLLVYL (peptide)
peptide: ALSEEGLLVYL
B20: NLFQSVREV (peptide)
peptide: NLFQSVREV
B21: GLLPGDRLVSV (peptide)
peptide: GLLPGDRLVSV
B22: VLLPNDLLEKV (peptide)
peptide: VLLPNDLLEKV
B23: ALMEDTGRQML (peptide)
peptide: ALMEDTGRQML
B24: YLMDESLNL (peptide)
peptide: YLMDESLNL
B25: YVLEFLEEI (peptide)
peptide: YVLEFLEEI
B26: FMVDNEAIYDI (peptide)
peptide: FMVDNEAIYDI
B27: ALWGGTQPLL (peptide)
peptide: ALWGGTQPLL
B28: LLVSNLDFGV (peptide)
peptide: LLVSNLDFGV
B29: FLPPEHTIVYI (peptide)
peptide: FLPPEHTIVYI
B30: KLSDIGITV (peptide)
peptide: KLSDIGITV
B31: VLSETLYEL (peptide)
peptide: VLSETLYEL
B32: RVLEVGALQAV (peptide)
peptide: RVLEVGALQAV
B33: FLFPNQYVDV (peptide)
peptide: FLFPNQYVDV
B34: VLFQGQASL (peptide)
peptide: VLFQGQASL
B35: YLVYILNEL (peptide)
peptide: YLVYILNEL
B36: ILLEQAFYL (peptide)
peptide: ILLEQAFYL
B37: AAFAGKLLSV (peptide)
peptide: AAFAGKLLSV
B38: LLADVVPTT (peptide)
peptide: LLADVVPTT
B39: SLLKVLPAL (peptide)
peptide: SLLKVLPAL
B40: NLWEDPYYL (peptide)
peptide: NLWEDPYYL
B41: SLQEQLHSV (peptide)
peptide: SLQEQLHSV
B42: SIFSAFLSV (peptide)
peptide: SIFSAFLSV
B43: SLVEVNPAYSV (peptide)
peptide: SLVEVNPAYSV
B44: LVYPLELYPA (peptide)
peptide: LVYPLELYPA
B45: ALLENIALYL (peptide)
peptide: ALLENIALYL
B46: SALEELVNV (peptide)
peptide: SALEELVNV
B47: LLDGFLVNV (peptide)
peptide: LLDGFLVNV
B48: VLLTFKIFL (peptide)
peptide: VLLTFKIFL
B49: ALYEEGLLL (peptide)
peptide: ALYEEGLLL
B50: LLIGTDVSL (peptide)
peptide: LLIGTDVSL
B51: AMQEYIAVV (peptide)
peptide: AMQEYIAVV
B52: QLLDVVLTI (peptide)
peptide: QLLDVVLTI
B53: ILRESTEEL (peptide)
peptide: ILRESTEEL
B54: VLASYNLTV (peptide)
peptide: VLASYNLTV
B55: ALFTFSPLTV (peptide)
peptide: ALFTFSPLTV
B56: ALLEASGTLLL (peptide)
peptide: ALLEASGTLLL
B57: YLVAKLVEV (peptide)
peptide: YLVAKLVEV
B58: SLLFSLFEA (peptide)
peptide: SLLFSLFEA
B59: LLWGDLIWL (peptide)
peptide: LLWGDLIWL
B60: LLLNELPSV (peptide)
peptide: LLLNELPSV
B61: LLPPLESLATV (peptide)
peptide: LLPPLESLATV
B62: GLDAATATV (peptide)
peptide: GLDAATATV
B63: TLIDAQWVL (peptide)
peptide: TLIDAQWVL
B64: GLLEAKVSL (peptide)
peptide: GLLEAKVSL
B65: AAYGGLNEKSFV (peptide)
peptide: AAYGGLNEKSFV
B66: ALGNTVPAV (peptide)
peptide: ALGNTVPAV
B67: RLPGPLGTV (peptide)
peptide: RLPGPLGTV
B68: ALLEAQDVELYL (peptide)
peptide: ALLEAQDVELYL
B69: ALYTGFSILV (peptide)
peptide: ALYTGFSILV
B70: LLFGGTKTV (peptide)
peptide: LLFGGTKTV
B71: YLNDLHEVLL (peptide)
peptide: YLNDLHEVLL
B72: ALMNTLLYL (peptide)
peptide: ALMNTLLYL
B73: TLLAFIMEL (peptide)
peptide: TLLAFIMEL

These binders were tested against T1, HLA-A*02:01 (human) (assay: UV peptide exchange ELISA).
T1 construct: monomers captured on streptavidin plates; also called MHC class I
Summary of the method: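 Peptide-MHC complexes formed by UV-triggered exchange of a cleavable peptide for the test peptide, with stabilised complexes indicating binding. Exchange products diluted 100 fold onto streptavidin-coated wells, 1h at 37° C.; HRP anti-β2m (2 μg/ml), TMB, absorbance at 450 nm gives exchange yield.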
Binder B1 has a peptide exchange yield of 50 to 75%.
B2 showed a peptide exchange yield of 50 to 75%.
In the case of B3, the peptide exchange yield is reported as 50 to 75%.
In the case of B4, the peptide exchange yield is reported as 50 to 75%.
With B5 the peptide exchange yield was 20 to 50%.
B6 showed a peptide exchange yield of 20 to 50%.
Work on B7 yielded a peptide exchange yield of 50 to 75%.
Work on B8 yielded a peptide exchange yield of 10 to 20%.
B9 showed a peptide exchange yield of 50 to 75%.
Binder B10 has a peptide exchange yield of 50 to 75%.
For B11, the peptide exchange yield was 20 to 50%.
For B12, the peptide exchange yield was 50 to 75%.
B13 showed a peptide exchange yield of 20 to 50%.
Work on B14 yielded a peptide exchange yield of 20 to 50%.
For B15, the peptide exchange yield was 20 to 50%.
B16 was tested, and the peptide exchange yield was 20 to 50%.
In the case of B17, the peptide exchange yield is reported as 50 to 75%.
B18 gave a peptide exchange yield of 20 to 50%.
For B19, the peptide exchange yield was 50 to 75%.
B20 showed a peptide exchange yield of 20 to 50%.
Work on B21 yielded a peptide exchange yield of 50 to 75%.
Work on B22 yielded a peptide exchange yield of 50 to 75%.
B23 showed a peptide exchange yield of 20 to 50%.
B24 was tested, and the peptide exchange yield was 50 to 75%.
B25 showed a peptide exchange yield of 20 to 50%.
For B26, the peptide exchange yield was at least 75%.
For B27, the peptide exchange yield was 20 to 50%.
B28 was tested, and the peptide exchange yield was 50 to 75%.
Work on B29 yielded a peptide exchange yield of 50 to 75%.
B30 gave a peptide exchange yield of 50 to 75%.
In the case of B31, the peptide exchange yield is reported as 20 to 50%.
Work on B32 yielded a peptide exchange yield of 20 to 50%.
B33 was tested, and the peptide exchange yield was 50 to 75%.
B34 gave a peptide exchange yield of 50 to 75%.
For B35, the peptide exchange yield was 20 to 50%.
B36 showed a peptide exchange yield of 50 to 75%.
With B37 the peptide exchange yield was 50 to 75%.
For B38, the peptide exchange yield was 50 to 75%.
Binder B39 has a peptide exchange yield of 50 to 75%.
Work on B40 yielded a peptide exchange yield of 50 to 75%.
With B41 the peptide exchange yield was 50 to 75%.
B42 gave a peptide exchange yield of 50 to 75%.
Binder B43 has a peptide exchange yield of 50 to 75%.
B44 gave a peptide exchange yield of 50 to 75%.
B45 gave a peptide exchange yield of 50 to 75%.
Binder B46 has a peptide exchange yield of 20 to 50%.
B47 was tested, and the peptide exchange yield was 50 to 75%.
With B48 the peptide exchange yield was 20 to 50%.
B49 showed a peptide exchange yield of 20 to 50%.
Binder B50 has a peptide exchange yield of 50 to 75%.
Work on B51 yielded a peptide exchange yield of 20 to 50%.
With B52 the peptide exchange yield was 20 to 50%.
In the case of B53, the peptide exchange yield is reported as 50 to 75%.
For B54, the peptide exchange yield was 50 to 75%.
B55 showed a peptide exchange yield of 50 to 75%.
B56 showed a peptide exchange yield of at least 75%.
B57 gave a peptide exchange yield of 20 to 50%.
B58 was tested, and the peptide exchange yield was 20 to 50%.
B59 showed a peptide exchange yield of 50 to 75%.
B60 showed a peptide exchange yield of 50 to 75%.
In the case of B61, the peptide exchange yield is reported as 20 to 50%.
B62 was tested, and the peptide exchange yield was 20 to 50%.
B63 gave a peptide exchange yield of 50 to 75%.
B64 showed a peptide exchange yield of 50 to 75%.
In the case of B65, the peptide exchange yield is reported as 50 to 75%.
For B66, the peptide exchange yield was 50 to 75%.
B67 was tested, and the peptide exchange yield was 20 to 50%.
In the case of B68, the peptide exchange yield is reported as 20 to 50%.
B69 showed a peptide exchange yield of 20 to 50%.
B70 showed a peptide exchange yield of 20 to 50%.
For B71, the peptide exchange yield was at least 75%.
With B72 the peptide exchange yield was 20 to 50%.
B73 gave a peptide exchange yield of 50 to 75%.
